Test results from publication PMC2603668, “Rhabdovirus Matrix Protein Structures Reveal a Novel Mode of Self-Association” (PLoS Pathogens, 2008).

Target: the molecule itself
Test: crystal structure

B1: matrix (M) protein from Lagos bat virus (natural protein)
chain: MNFLRKIVKNCKDEEIPKPGTPSAPPDDDDLWMPPPEYVPLTQIKGKENVRNFCINGEIKICSPNGYSFRILRHILKSFDNVYSGNRRLIGVVKVVIGLVLSASPVPEGMNWVYKLRRTLIFQWAESHGPLEGEELEYSQEITWDDEAEFVSLQIRVSAKQCHIQGRLWCINMNSKACQLWADMGLKTQQSQEDENTSLLLE
notes: also called LBV M; full-length LBV M
**Q.** Does B1 bind?
**A.** binds
